Laboratory results from PMC6449940, “The Cdc42 effectors Gic1 and Gic2 regulate polarized post-Golgi secretion” (Cell & Bioscience, 2019).

Assays:
[1] = molecular target: T1, His6-Cdc42 (S. cerevisiae, UniProt P19073 1-191); experiment: pull-down; GST-Gic2N (a.a.1–155) on glutathione Sepharose (20 μg), His6-Cdc42 or mutant (10 μg) in the presence of GTPγS; bound protein detected with anti-Hisx6 antibody; conditions: both partners purified
T1 construct: Cdc42, small GTPase, S. cerevisiae; also called Hisx6-Cdc42; Cdc42 wild type; source: bacteria, purified (Hisx6 fusion)

[2] = molecular target: T2, His6-cdc42-302 (V36A F37A) (S. cerevisiae, UniProt P19073 1-191, V36A | F37A); experiment: as above; conditions: both partners purified
T2 construct: Cdc42, S. cerevisiae, with V36A and F37A; source: bacteria, purified (Hisx6 fusion)
T2 sequence (P19073 whole entry V36A/F37A, the tested form may be a part): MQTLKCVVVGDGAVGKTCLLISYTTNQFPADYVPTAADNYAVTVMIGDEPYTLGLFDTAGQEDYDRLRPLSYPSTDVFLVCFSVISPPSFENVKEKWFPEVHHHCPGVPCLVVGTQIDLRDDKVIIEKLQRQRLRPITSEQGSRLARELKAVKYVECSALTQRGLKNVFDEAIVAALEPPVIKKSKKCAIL

T1 sequence (P19073 whole entry, the tested form may be a part): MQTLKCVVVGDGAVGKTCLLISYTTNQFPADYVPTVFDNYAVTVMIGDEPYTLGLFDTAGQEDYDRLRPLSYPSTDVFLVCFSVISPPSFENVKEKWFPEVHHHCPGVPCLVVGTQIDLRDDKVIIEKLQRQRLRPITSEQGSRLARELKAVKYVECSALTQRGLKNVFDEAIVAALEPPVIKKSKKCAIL

- binding result [1]: binds
- binding result [2]: binds
B1: GST-tagged Gic2N (amino acids 1–155) (domain or fragment, S. cerevisiae (budding yeast), UniProt Q06648 1-155, looked up)
chain: MTSASITNTGNETMNLPQMRSIWLDEDEEAEKLYGLQAQQFMGSDDEENLGITFINSDKPVLSNKKNIELPPLSPNSHPSCHHRRSNSNSAKSKESSSSSSSANKTNHKKVFLKLNLLKKKLLGAQPDIRGKGISTPFDFQHISHADTRNGFQDE
notes: also called GST-Gic2N; GST-Gic2; source: GST fusion protein, purified and conjugated to glutathione Sepharose
